From patent US20240052027A1 (OBLIQUE THERAPEUTICS, published 2024)
Bridge positions count the residues as written; N and C are the ends. * marks the point of attachment. Propargyl = C#CC*

T1: NHP-OTV16 peptide (SEQ ID NO:5) (Macaca mulatta, disulfide 1-18)
T1 construct: cyclic
T1 peptide: Propargyl-CYRPVDGLPPFKMEKTEC-NH2

T2: OTV16 peptide (SEQ ID NO:3) (human, disulfide 1-18; SMILES …)
T2 construct: cyclic; Coated on ELISA plates
T2 peptide: Propargyl-CYRPVDGLPPFKMEKTGC-NH2

T3: mOTV16 peptide (SEQ ID NO:9) (mouse, disulfide 1-19)
T3 construct: cyclic
T3 peptide: Propargyl-CYRPVEGLPPYKLNNTVGC-NH2

T4: rOTV16 peptide (SEQ ID NO:7) (rat, disulfide 1-18)
T4 construct: cyclic
T4 peptide: Propargyl-CYRPVEGLPPYKLKNTGC-NH2


Assays:
[1] = target: T1, NHP-OTV16 peptide (SEQ ID NO:5); assay: peptide ELISA of B-cell clone supernatant
Experimental: (§1) FIG. 5: Peptide ELISA of B-cell clone supernatants. Antibody in supernatant from B-cell clones was tested for binding to OTV16 peptide, NHP-OTV16 peptide and rOTV16 peptide respectively. B-cell supernatants were incubated for 1 hr in 96-well plates coated with the respective peptide. Plates were washed and bound antibody was detected using anti-rabbit IgG conjugated to horse radish peroxidase with absorbance measured at 450 nm. Serum from immunized rabbit was used as a positive binding control. B-cell culture medium (antibody-free) was used as a negative control. N=1.
(§2) 96-well plates suitable for ELISA were coated with respective peptide (1 μg/mL) in PBS and incubated 1 h at 37° C. or overnight at 4° C. The peptides used to coat the plates were OTV16 (SEQ ID NO:3), NHP-OTV16 (SEQ ID NO:5), and rOTV16 (SEQ ID NO:7) (described below). Plates were washed with wash buffer and incubated 1 h at 37° C. in the presence of blocking buffer (PBS, 0.5% BSA, 0.05% Tween 20, pH 7.4). B-cell supernatants were added and incubated for 1 h at 37° C. Plates were washed with wash buffer and Mouse Anti-Rabbit IgG Fc Antibody conjugated to horseradish peroxidase (Genscript, cat #A01856) was added and incubated for 30 minutes, 37° C. Plates were washed with wash buffer followed by addition of substrate solution, 100 μl/well and incubated for 13-20 minutes at RT. Reaction was stopped by adding 100 μl/well of stop solution. Absorbance was measured at 450 nm. Serum from immunized rabbit known to contain antibody that binds to OTV16 peptide was used as a positive control. B-cell culture medium (antibody-free) was used as a negative control.

[2] = target: T2, OTV16 peptide (SEQ ID NO:3); assay: peptide ELISA of purified recombinant monoclonal antibody
Experimental: (§3) FIG. 6: Peptide ELISA of purified recombinant monoclonal antibodies. Monoclonal antibodies were tested for binding to OTV16 peptide, NHP-OTV16 peptide, mOTV16 peptide and rOTV16 peptide. Non-specific binding was determined using wells coated with bovine serum albumin (BSA). Serum from immunized rabbit (known to contain OTV16-binding antibody) was used as a positive binding control. Serial dilutions of antibody were incubated for 1 hr in ELISA plates coated with peptide or BSA. Plates were washed, and bound antibody was detected using anti-rabbit IgG conjugated to […] with absorbance measured at 405 nm.
(§4) 96-well plates suitable for ELISA were coated with peptide (1 μg/mL) in PBS and incubated 1 h at 37° C. The peptides used to coat the plates were OTV16 (SEQ ID NO:3; described above), NHP-OTV16 (SEQ ID NO:5; described above), rOTV16 (SEQ ID NO:7; described above) and mOTV16 (SEQ ID NO:9; described below). Plates were washed with PBS containing 0.05% Tween and incubated 1 h at 37° C. in the presence of blocking buffer (PBS, 0.5% BSA, 0.05% Tween 20, pH 7.4). A serial dilution of recombinant antibodies of the invention (23B9-1 or 24C6-1 or 27A2-1 or 29B5-1 or 2B₁₁-1 or 33B6-1 or 4D11-1 or 54F1-1 or 69H7-1 or 75C9-1 or 9E4-1) was added in blocking buffer and incubated for 1 h at RT. Plates were washed with PBS containing 0.05% Tween and a secondary antibody (anti-rabbit IgG conjugated to Alkaline Phosphatase (DAKO)), was added and incubated for 1 h at RT. Plates were washed with PBS containing 0.05% Tween followed by addition of 1 mg/mL pNPP (p-nitrophenyl […] phosphate) in pNPP buffer. Absorbance was measured at 405 nm. Serum from rabbit immunized with OTV16 peptide was used as a positive control. Non-specific binding, e.g. to plastic, was determined using wells coated with bovine serum albumin (BSA) protein.

[3] = target: T2, OTV16 peptide (SEQ ID NO:3); assay: peptide ELISA of B-cell clone supernatant
Experimental: as §1, §2

[4] = target: T3, mOTV16 peptide (SEQ ID NO:9); assay: peptide ELISA of purified recombinant monoclonal antibody
Experimental: as §3, §4

[5] = target: T4, rOTV16 peptide (SEQ ID NO:7); assay: peptide ELISA of B-cell clone supernatant
Experimental: as §1, §2

Row | binding result [1] | binding result [2] | binding result [3] | binding result [4] | binding result [5] | Binder
1 | binds | binds | – | – | – | 24C6-1 (antibody, V domains shown, Recombinant rabbit IgG with rabbit kappa light chain, made in HEK cells; Also tested as B-cell clone supernatant; also called monoclonal antibody 24C6-1) VH: QSVEESGGRLVTPGTPLTLTCTVSGFSLSTYAMAWVRQAPGKGLEWIGIIGQSSKTYYAIWAKGRFTISRTSTTVDLKIPSPTTEDTATYFCARGSTYVLDMWGPGTLVTVSL VL: AVVMTQTASPVSAAVGGTVTIKCQASQSISSYLAWYQQKPGQPPKLLIADASKLVSGVPSRFKGSGSGTEFTLTISDLECADAATYYCQNYYGSSDFGTFGGGTEVVVE
2 | binds | – | binds | – | – | 75C9-1 (antibody, V domains shown, Recombinant rabbit IgG with rabbit kappa light chain, made in HEK cells; Also tested as B-cell clone supernatant; also called monoclonal antibody 75C9-1) VH: QEQVVESGGGLVQPEGSLTLTCTASGFSFNNNAMCWVRQAPGKGLEWIGCIGTAASGNSYYASWAKGRFTISRTSSTTVTLQMTSLTAADTATYFCPRDINAYGNDGWSFKLWGPGTLVTVSS VL: AFELTQTPSSVEAAVGGTVTIKCQASQSINGWLSWYQQKPGQPPKLLIYRASPVASGVPSRFKGSGSGTEYTLTISGVQCDDAATYYCQQGYTFNNVDDPFGGGTEVVVK
3 | binds | – | binds | binds | – | 23B9-1 (antibody, V domains shown, Recombinant rabbit IgG with rabbit kappa light chain, made in HEK cells; Also tested as B-cell clone supernatant; also called monoclonal antibody 23B9-1) VH: QSVEESGGRPVTPGTPLTLTCTVSGIDLSRYAVDWVRQAPGKGLEWIGIILTSGKISYASWVKGRFTISKTSTTVDLKMTSLTTEDTATYFCARHFDLWGQGTLVTVSS VL: QVLTQTASPVSAAVGGTVTINCQSSQSVYNNNNLAWYQQKPGQPPKLLIYDSSKLESGVPSRFKGSGSGTQFTLIISDLECDDAATYYCAGGYSGVIASFGGGTEVVVK
4 | binds | binds | – | binds | binds | 54F1-1 (antibody, V domains shown, Recombinant rabbit IgG with rabbit kappa light chain, made in HEK cells; Also tested as B-cell clone supernatant; also called monoclonal antibody 54F1-1) VH: QSVGESGGRLVTPGTPLTLTCTVSGIDLSVYPVDWVRQAPGKGLEWIGIISTNGNTYYANWAKGRFTISKTSSTTVDLKMTSLTTEDTATYFCARHFDLWGQGTLVTVSS VL: QVLTQTASPVSAAVGGTVTINCQSSQTVYNNNNLAWYQQKSGQPPKLLIYDSFKLESGVPSRFSGSGSGTQFTLTISDLECDDAATYYCAGGYAGWIAAFGGGTEVVVK
5 | binds | – | binds | binds | – | 9E4-1 (antibody, V domains shown, Recombinant rabbit IgG with rabbit kappa light chain, made in HEK cells; Also tested as B-cell clone supernatant; also called monoclonal antibody 9E4-1) VH: QSLEESGGRLVTPGTPLTLTCTVSGIDLSSVTMGWVRQAPGKGLEYIGVIVPRGATYYANWVKGRFTISKTSTTVDLKMTSLTTEDTATYFCARDGDTGNIYGYYFDIWGPGTLVTVSL VL: AYDMTQTPASVSEPVGGTVTIKCQASQSISTALAWYQQKSGQRPKLLIYDAWKLASGVSSRFKGSGSGTQFTLTISGVQCDDAATYYCQQGYSGNNVDNVFGGGTEVVVS
6 | binds | binds | – | – | – | 29B5-1 (antibody, V domains shown, Recombinant rabbit IgG with rabbit kappa light chain, made in HEK cells; Also tested as B-cell clone supernatant; also called monoclonal antibody 29B5-1) VH: QSLEESGGRLVTPGTPLTLTCTVSGIDLSSVTMGWVRQAPGKGLEYIGVITTIRTTYYASWVNGRFTISQTSTTVDLKMTSLTTEDTATYFCARDGDTTNTYGYYFDIWGPGTLVTVSL VL: AVVMTQTPASVEVAVGGTVTIKCQASQSISSYLAWYQQKPGQPPKLLIYKASTLASGVPSRFKGSGSGTQFTLTISGVQCDDAATYYCQQGYTGNNVDNIFGGGTEVVVK

The next lines start with the binder.

Row | Binder | binding result [1] | binding result [2] | binding result [3] | binding result [4] | binding result [5]
7 | 4D11-1 (antibody, V domains shown, Recombinant rabbit IgG with rabbit kappa light chain, made in HEK cells; Also tested as B-cell clone supernatant; also called monoclonal antibody 4D11-1) VH: QEQVVESGGGLVQPEGSLTLTCTASGFDFSSNAMCWVRQAPGKGLAWIGCIGTGSSGSTYYASWARGRFTISKTSSTTVTLQMTSLTAADTATYFCPRDINAYGNDGWSFNLWGPGTLVTVSS VL: AYDMTQTPASVEVAVGGTVTIKCQASQSIVGWLSWYQQKPGQPPKLLIYRASTLASGVPSRFKGSGSGTEFTLTISDLECDDAATYYCQQGYTFNNVDNPFGGGTEVLVK | binds | binds | – | – | –
8 | 33B6-1 (antibody, V domains shown, Recombinant rabbit IgG with rabbit kappa light chain, made in HEK cells; Also tested as B-cell clone supernatant; also called monoclonal antibody 33B6-1) VH: QSLEESGGRLVTPGTPLTLTCTASGLSLSSYDMNWVRQAPGKGLEYIGFINTRGSAYYASWATGRFTISRTSTTVDLTMTSPTTEDTATYFCARDIPDWDIGHVFDLWGPGTLVTVSS VL: AYDMTQTPASVEVTMGGAVTIKCQASQSISNELSWYQQKPGQRPRLLIYQASALASGVPSRFKGSGYGTQFTLTISDLECADAATYYCQQGYTSNNIVNAFGGGTEVVVK | binds | binds | – | – | –
9 | 69H7-1 (antibody, V domains shown, Recombinant rabbit IgG with rabbit kappa light chain, made in HEK cells; Also tested as B-cell clone supernatant; also called monoclonal antibody 69H7-1) VH: QSLEESGGRLVTPGTPLTLTCTASGLSLSRYDMNWVRQAPGKGLEYIGFINTRGSTYYATWTTGRFTISRTSTTVDLTMTSPTTEDTATYFCARDIPDWDIGHVFDLWGPGTLVTVSS VL: AYDMTQTPASVSGAVGGTVTINCQASQSISNELSWYQQKPGQRPRLLIYQASTLASGVPSRFKGSGYGTQFTLTISDLECADAATYYCQQGYTSNNIVNAFGGGTEVVVK | binds | – | binds | – | –
10 | 27A2-1 (antibody, V domains shown, Recombinant rabbit IgG with rabbit kappa light chain, made in HEK cells; Also tested as B-cell clone supernatant; also called monoclonal antibody 27A2-1) VH: QSLEEAGGRLVTPGGSLTLTCTASGLSLSSYDMNWVRQAPGKGLEFIGFINTRGTAYYASWAKGRFTISRTSTTVDLTMTSPTTEDTATYFCARDIPDWNIGHVFDLWGPGTLVTVSS VL: AYDMTQTPASVEVTMGGAVTINCQASQSITNELAWYQQKPGQRPRLLIYQASALASGVPSRFKGSGYGTQFTLTISDLECADAATYYCQQGYTSNNIVNAFGGGTEVVVK | binds | binds | – | – | –
11 | 2B11-1 (antibody, V domains shown, Recombinant rabbit IgG with rabbit kappa light chain, made in HEK cells; Also tested as B-cell clone supernatant; also called monoclonal antibody 2B11-1) VH: QSVGESGGRLVTPGTPLTLTCTVSGIDLSIYPVDWVRQAPGKGLEWIGIINTNGNTYYANWAKGRFTISKTSSTTVDLQVTSLTTEDTATYFCARHFDLWGQGTLVTVSS VL: QVLTQTASPVSAAVGGTVTINCQSSQTVYNNNNLAWYQQKSGQPPKLLIYDSSKLESGVPSRFSGSGSGTQFTLTISDLECDDAATYYCAGGYGGWIAAFGGGTEVVVK | binds | binds | – | binds | binds
